Columns and labels:
Test in all cases: purified protein, by the assay type
Assay type in all cases: biochemical
[1] = substrate: CC(=O)NCCSC(=O)[C@H](CC(C)C)NC(=O)[C@H](CCC(=O)O)NC(=O)[C@@H](NC(=O)[C@H](Cc1ccc(O)cc1)NC(=O)[C@H](CCC(N)=O)NC(=O)[C@H](CC(N)=O)NC(=O)[C@@H](Cc1ccccc1)NC(=O)[C@H](Cc1ccccc1)NC(=O)[C@@H]1CCCN1C(=O)[C@H](N)Cc1ccccc1)C(C)C; conditions: other: Table 1; macrocyclization of peptide-SNAC substrate; 25 mM MOPS, pH 7.0
Method: (§1) Macrocyclization reactions were carried out in 25 mM MOPS, pH 7.0 in a total volume of 400 μL. Reactions were initiated by addition of TycC TE and quenched at various time points by the addition of 25 μL 1.7% TFA/water, flash frozen in liquid nitrogen and stored at −80° C. (for Ex. 13, reactions were quenched by the addition of sodium phosphate, pH 5.3, to 100 mM). The reactions were then thawed, 85 μL acetonitrile added, and analyzed by analytical HPLC with monitoring at 220 nm (20% to 80% acetonitrile in 0.1% TFA/water, or in 25 mM potassium phosphate, pH 5.3 for Ex. 13, over 35 minutes, Vydac protein and peptide C18 column). Initial rates were calculated using 1 minute time points. Peptide-SNAC and reaction product concentrations were determined for all Tyr-containing peptides based on the estimated extinction coefficient ε (280 nm)=1,280 M^−1 cm^−1, which agrees with the experimentally determined ε (280 nm) of Ex. 1. For peptide-SNACs not containing Tyr, ε (220 nm) was determined experimentally, and concentrations of corresponding cyclic products determined by assuming equal ε (220 nm) values for the peptide-SNAC and cyclic product.

[2] = substrate: CC(=O)NCCSC(=O)[C@H](CC(C)C)NC(=O)[C@H](CCCN)NC(=O)[C@@H](NC(=O)[C@H](CC(C)C)NC(=O)[C@@H](NC(=O)[C@@H]1CCCN1C(=O)[C@@H](Cc1ccccc1)NC(=O)[C@H](CC(C)C)NC(=O)[C@H](CCCN)NC(=O)[C@@H](NC(=O)[C@H](CC(C)C)NC(=O)[C@@H](NC(=O)[C@@H]1CCCN1C(=O)[C@H](N)Cc1ccccc1)C(C)C)C(C)C)C(C)C)C(C)C; conditions: other: Table 2; cyclization of peptide-SNAC substrates of 6-14 amino acids
Method: as §1

[3] = substrate: CC(=O)NCCSC(=O)[C@H](CC(C)C)NC(=O)[C@H](CCCN)NC(=O)[C@@H](NC(=O)[C@H](Cc1ccc(O)cc1)NC(=O)[C@H](CCC(N)=O)NC(=O)[C@H](CC(N)=O)NC(=O)[C@@H](Cc1ccccc1)NC(=O)[C@H](Cc1ccccc1)NC(=O)[C@H](C)NC(=O)[C@H](N)Cc1ccccc1)C(C)C; conditions: other: Table 1; macrocyclization of peptide-SNAC substrate; 25 mM MOPS, pH 7.0
Method: as §1

[4] = substrate: CC(=O)NCCSC(=O)[C@H](CC(C)C)NC(=O)[C@H](CCCN)NC(=O)[C@@H](NC(=O)[C@H](Cc1ccc(O)cc1)NC(=O)[C@H](CCC(N)=O)NC(=O)[C@H](CC(N)=O)NC(=O)[C@@H](Cc1ccccc1)NC(=O)[C@H](C)NC(=O)[C@@H]1CCCN1C(=O)[C@H](N)Cc1ccccc1)C(C)C; conditions: other: Table 1; macrocyclization of peptide-SNAC substrate; 25 mM MOPS, pH 7.0
Method: as §1

[5] = substrate: CC(=O)NCCSC(=O)[C@H](CC(C)C)NC(=O)[C@H](CCCN)NC(=O)[C@@H](NC(=O)[C@H](Cc1ccc(O)cc1)NC(=O)[C@H](CCC(N)=O)NC(=O)[C@H](CC(N)=O)NC(=O)[C@H](Cc1ccccc1)NC(=O)[C@@H]1CCCN1C(=O)[C@H](N)Cc1ccccc1)C(C)C; conditions: other: Table 1; macrocyclization of peptide-SNAC substrate; 25 mM MOPS, pH 7.0
Method: as §1

[6] = substrate: CC(=O)NCCSC(=O)[C@H](CC(C)C)NC(=O)[C@H](CCCN)NC(=O)[C@@H](NC(=O)[C@H](C)NC(=O)[C@H](CCC(N)=O)NC(=O)[C@H](CC(N)=O)NC(=O)[C@@H](Cc1ccccc1)NC(=O)[C@H](Cc1ccccc1)NC(=O)[C@@H]1CCCN1C(=O)[C@H](N)Cc1ccccc1)C(C)C; conditions: other: Table 1; macrocyclization of peptide-SNAC substrate; 25 mM MOPS, pH 7.0
Method: as §1

[7] = substrate: CC(=O)NCCSC(=O)[C@H](CC(C)C)NC(=O)[C@H](CCCN)NC(=O)[C@@H](NC(=O)[C@H](Cc1ccc(O)cc1)NC(=O)[C@H](CCC(N)=O)NC(=O)[C@H](C)NC(=O)[C@H](CC(N)=O)NC(=O)[C@@H](Cc1ccccc1)NC(=O)[C@H](Cc1ccccc1)NC(=O)[C@@H]1CCCN1C(=O)[C@H](N)Cc1ccccc1)C(C)C; conditions: other: Table 1; macrocyclization of peptide-SNAC substrate; 25 mM MOPS, pH 7.0
Method: as §1

[8] = substrate: CC(=O)NCCSC(=O)[C@H](CC(C)C)NC(=O)[C@H](CCCN)NC(=O)[C@H](C)NC(=O)[C@H](Cc1ccc(O)cc1)NC(=O)[C@H](CCC(N)=O)NC(=O)[C@H](CC(N)=O)NC(=O)[C@@H](Cc1ccccc1)NC(=O)[C@H](Cc1ccccc1)NC(=O)[C@@H]1CCCN1C(=O)[C@H](N)Cc1ccccc1; conditions: other: Table 1; macrocyclization of peptide-SNAC substrate; 25 mM MOPS, pH 7.0
Method: as §1

[9] = substrate: CC(=O)NCCSC(=O)[C@H](CC(C)C)NC(=O)[C@H](CCCN)NC(=O)[C@@H](NC(=O)[C@H](Cc1ccc(O)cc1)NC(=O)[C@H](CCC(N)=O)NC(=O)[C@H](CC(N)=O)NC(=O)[C@@H](C)NC(=O)[C@H](Cc1ccccc1)NC(=O)[C@@H]1CCCN1C(=O)[C@H](N)Cc1ccccc1)C(C)C; conditions: other: Table 1; macrocyclization of peptide-SNAC substrate; 25 mM MOPS, pH 7.0
Method: as §1

[10] = substrate: CC(=O)NCCSC(=O)[C@H](C)NC(=O)[C@H](CCCN)NC(=O)[C@@H](NC(=O)[C@H](Cc1ccc(O)cc1)NC(=O)[C@H](CCC(N)=O)NC(=O)[C@H](CC(N)=O)NC(=O)[C@@H](Cc1ccccc1)NC(=O)[C@H](Cc1ccccc1)NC(=O)[C@@H]1CCCN1C(=O)[C@H](N)Cc1ccccc1)C(C)C; conditions: other: Table 1; macrocyclization of peptide-SNAC substrate; 25 mM MOPS, pH 7.0
Method: as §1

B1: TycC TE (excised TE domain protein from the tyrocidine NRPS) (Brevibacillus parabrevis) (protein)
chain: FESRYGTAILLNQETARNVFCFTPIGAQSVYYQKLAAEIQGVSLYSFDFIQDDNRMEQYIAAITAIDPSGPYTLMGYSSGGNLAFEVAKELEERGYGVTDIILFDSYWKDKAIERTVAETENDIAQLFAEIGENTEMFNMTQEDFQLYAANEFVKQSFVRKTVSYVMFHNNLVNTGMTTAAIHLIQSELEADEEAPVAAKWNESAWANATQRLLTYSGHGIHSRMLAGDYASQNASILQNILQELFILK
notes: excised TE domain protein from the tyrocidine NRPS (TycC TE); made in house
Km [1]: 56 µM
Km [2]: 5 µM
kcat [2]: 0.1 s⁻¹
Km [3]: 3 µM
Km [4]: 6 µM
Km [5]: 6 µM
Km [6]: 15 µM
Km [7]: 20 µM
Km [8]: 9 µM
Km [9]: 6 µM
Km [10]: 6 µM
